Test results reported in the DeepSol protein solubility set.

experiment: soluble on expression in E. coli; label from the status in PepcDB or PDB records

| Sequence | soluble on expression in E. coli |
| --- | --- |
| MADNINESEIIERLNSAPSVRGFFIATVDVFNESIDGLIQRIFRKDNFAVQSVVGPLLQDSGPLGDLSVRLKLLFGLGVLPDDIYHDIEDIIKLKNHLNSDASDYEFTDPNILEPIKKLHLVKKMGMVQLEVNEPDDDIDLEFYQLQLQRQQQIIKSGLSLAIVEICNELGKDSPF | not soluble |
| SLKPFQDKNTFFYKSPSYICDSEISVACKKGKKVDFPNQDDFTIIQTNDWILIMVFDGHGPSGHDISNFVHVVLPLLFSYNIEKIYENPVRTMKTLFYMINCYLVNYSYCINNNINPININFIDYNLSGTTCTIILYNFITKKIYSAHTGDSRAVMGKQNPQTNKFSAYNITEDHKPSLKLEKDRILAFGGEVKKLHGDVAYRVFVKDEMYPGLAMSRAIGDITSSFIGVTCEPTIKILDKLEEDKFIIVATDGIWEFISSEECVQMVSKKKKKKVHIAMEEIIKESWRRWARIDTVDDMTLVILYF | not soluble |
| GPGSMMEYADAYVGGGGRLRPGAQGSTTATGASRPYLEQRTVAPVTSALGQELDRLVGGTLAAQEYRDRLEALTRSVQASDEKVLNLTRLVKLSQSIQEEKEADLRRQNDELRARLKRQEQLTAQLQRQLEGMQGAVDAQALHHVVERLEGQMSACRGKQEEQWVAVQQRIGELEDRLQRASTCTAERCEERLMQLDERLQQVTQSTADATNQWAKRNFVRFKEQVDSLRADLDDVRGGQKELKSTVQSASCRAEIEYKKVLLLLQQKTKEADALTSLVEKELQHLQKVAHRHQILASKDITPAFEFDEKPYDALKFAAGEGKRRGAEAAAERRRR | not soluble |
| KREHAKQHGMIRTEITGAEIAEEMEKERRLFQLQMCEYLIKVNEIKTKKGVDLLQNLIKYYHAQCNFFQDGLKTADKLKQYIEKLAADLYNIKQTQDEEKKQLTALRDLIKSSLQLDQKESRRDSQSRQGGYSMHQLQGNKEYGSEKKGYLLKKSDGIRKVWQRRKCSVKNGILTISHATSNRQPAKLNLLTCQVKPNAEDKKSFDLISHNRTYHFQAEDEQDYVAWISVLTNSKEEALTMAFRGEQSAGENSLEDLTKAIIEDVQRLPGNDICCDCGSSEPTWLSTNLGILTCIECSGIHREMGVHISRIQSLELDKLGTSELLLAKNVGNNSFNDIMEANLPSPSPKPTPSSDMTVRKEYITAKYVDHRFSRKTCSTSSAKLNELLEAIKSRDLLALIQVYAEGVELMEPLLEPGQELGETALHLAVRTADQTSLHLVDFLVQNCGNLDKQTALGNTVLHYCSMYSKPECLKLLLRSKPTVDIVNQAGETALDIAKRLKATQCEDLLSQAKSGKFNPHVHVEYEWNLRQEEIDESDDDLDDKPSPIKKERSPRPQSFCHSSSISPQDKLALPGFSTPRDKQRLSYGAFTNQIFVSTSTDSPTSPTTEAPPLPPRNAGKGPTGPPSTLPLSTQTSSGSSTLSKKRPPPPPPGHKRTLSDPPSPLPHGPPNKGAVPWGNDGGPSSSSKTTNKFEGLSQQSSTSSAKTALGPRVLPKLPQKVALRKTDHLSLDKATIPPEIFQKSSQLAELPQKPPPGDLPPKPTELAPKPQIGDLPPKPGELPPKPQLGDLPPKPQLSDLPPKPQMKDLPPKPQLGDLLAKSQTGDVSPKAQQPSEVTLKSHPLDLSPNVQSRDAIQKQASEDSNDLTPTLPETPVPLPRKINTGKNKVRRVKTIYDCQADNDDELTFIEGEVIIVTGEEDQEWWIGHIEGQPERKGVFPVSFVHILSD | soluble |
| LGNEDFNSVIQQMAQGRQIEYIDIERPSTGGLGFSVVALRSQNLGKVDIFVKDVQPGSVADRDQRLKENDQILAINHTPLDQNISHQQAIALLQQTTGSLRLIVAREPVHTKSST | soluble |
| MTATQGKCPVMHGGATTVNISTAEWWPKALNLDILSQHDRKTNPMGPDFNYQEEVQKLDAALKQDLQALMTDSQDWWPADWGHYGGLMIRLTWHAAGTYRIADGRGGAGTGNQRFAPLNSWPDNTNLDKARRLLWPIKQKYGNKLSWADLIAYAGTIAYESMGLKTFGFAFGREDIWHPEKDIYWGPEKEWFPPSTNPNSRYTGDRELENPLAAVTMGLIYVNPEGVDGNPDPLKTAHDVRVTFARMAMNDEETVALTAGGHTVGKCHGNGNAALLGPEPEGADVEDQGLGWINKTQSGIGRNAVTSGLEGAWTPHPTQWDNGYFAVCSLNYDWELKKNPAGAWQWEPINPREEDLPVDVEDPSIRRNLVMTDADMAMKMDPEYRKISERFYQDPAYFADVFARAWFKLTHRDMGPKARYIGPDVPQEDLIWQDPIPAGNRNYDVQAVKDRIAASGLSISELVSTAWDSARTYRNSDKRGGANGARIRLAPQKDWEGNEPDRLPKVLAVLEGISAATGATVADVIVLAGNVGVEQKARAAGVEIVLPFAPGRGDATAEQTDTESFAVLEPIHDAIATGSSRTMRQRLKNCCLIATQLLGLTAPEMTVLIGGLRVLGTNHGGTKHVVFTDREGVLTNDFFVNLTDMNYLWKPAGKNLYEICDRKTNQVKWTATRVDLVFGSNSILRAYSELYAQDDNKEKFVRDFVAAWTKVMNADRFDLD | soluble |
| YPMVNNYLEMGHGLYVVEIHVKSNLHDTPLSKLISRGSYNIQPILVKREEAVYTNINDEFVLNEFDTLLLCGSRAELKYVAPRLV | not soluble |
| MSRQCTHYGRWPQHGFTSLKKLRPQSVTSRIQPGSDVIVCAEMDEHWGYVGAKSRQRWLFYAYDRIRRTVVAHVFGERTLATLERLLSLLSAFEVVVWMTDGWPLYESRLKGKLHVISKRYTQRIERHNLNLRQHLARLVRKSLSFSKSVELHDKVIGHYLNIKHYQLEHHHHHH | not soluble |
| MSETPLLFQTRDYRGATIEDLNIPLAVSINPTTSIYEAIGIAFENEFTYLPVIHERTKRLLGVINIEELKSNGDKLKRSILAPIVKSYMIWFNQSAKRKYEQENKEVLSSNRTAPKTTILKPRGKRYEVLTPMTPLEKLAEFFNSGNYFAIVTNGHGDFVYGVVTPQDLMKYEQSRPKL | soluble |
| LLGNTIHVPCQPCRHGHGAPSRGLRGRPADRWPVARATPTLHVCPQNQGVGLDFVRKPEYGRLRWPAYPAGTNNDRLISMRDGGIVALPQLTDEQRAAALEKAAAARRARAELKDRLKRGGTNLTQVLKDAESDEVLGKMKVSALLEALPKVGKVKAQEIMTELEIAPTRRLRGLGDRQRKALLEKFGSA | soluble |
| EFSMEDLIPLVNRLQDAFSAIGQNADLDLPQIAVVGGQSAGKSSVLENFVGRDFLPRGSGIVTRRPLVLQLVNATTEYAEFLHCKGKKFTDFEEVRLEIEAETDRVTGTNKGISPVPINLRVYSPHVLNLTLVDLPGMTKVPVGDQPPDIEFQIRDMLMQFVTKENCLILAVSPANSDLANSDALKVAKEVDPQGQRTIGVITKLDLMDEGTDARDVLENKLLPLRRGYIGVVNRSQKDIDGKKDITAALAAERKFFLSHPSYRHLADRMGTPYLQKVLNQQLTNHIRDTLPGLRNKLQSQLLSIEKEVEEYKNFRPDKHGTDSRVDEMLRMYHALKEALSIIGNIN | soluble |
| MGSDKIHHHHHHMSTFLESLRDILSAGESIAMATIANHSGSTPRGDGAQMVIRPDGSILGTIGGGLVEARCIEAGRDLLQRPPGSALFCAFALDNTTAAEAAMVCGGHLTVIIEHAGACHDNVNGCHTGEQTGCSAGHGKGLADILLHACDRVADGLSASFGVEYVWDSPSGQDGANALDKADISGRATTRQTFRPMRAAVHTTGEDSDGQRLSGASTGLALSESGCRLDVMLVPPPRLVIFGAGHVAVPTAHFGHAVGFSVTVIDDRPDFATPERFPDAHLRIPPSFAEAFDGLHVTPDTYLVIMTRGHLHDGEILEQALKTPARYIGMIGSRRKRDALYAELQEQGLDDATLARCHCPIGLDIQAQTPEEIGISIMAELVMHRASA | not soluble |
| WFDTLNCHRLSDYQVGRAADIRLPEGCAFSDGIGSAFALEEAPPFSGRPDMPTAADFLALAAKGGYPAVHAAHAGLLYVRNKIALTAKEQAERRARP | not soluble |
| CHQDCPQMSPQPEMDRFASEFGEQDVAVDGQAPENALENDEPKYAPQVISEQNAFLMREMMYSNIWGGGNWREGTGWNGTGWRAQKLERRDIGGKTGTTNDSKDA | not soluble |
